Data on 32 variants can be found in the RNAGym collection of RNA variant scans (doi:10.7554/elife.80360).

B1: HDV Ribozyme (parent)
chain: GGCCGGCAUGGUCCCAGCCUCCUCGCUGGCGCCGGCUGGGCAACAUUCCGAGGGGACCGUCCCCUCGGUAAUGGCGAAUGGGACCCA

Variants of B1 are the subject of the data set. Briefly: self-cleavage, relative activity (ratio to wild type); higher = more cleavage; co-transcriptional.
In the case of GGCCGGCAUGGUCCCAGCCUCCUCGCUGGCGCCGGCUGGGCAACAUUCCGAGGGGUCCAUCCCCUCGGUAAUGGCGAAUGGGACCCA, the self-cleavage is 0.926.
To GGCCGGCAUCGUCCUAGCCUCCUCGCUGGCGCCGGCUGGGCAACAUUCCGAGGGGACCGUCCCCUCGGUAAUGGCGAAUGGGACCCA belongs 0.582; to GGCCGCCAUGGUCCCAGCCUCCUCGCUGGCGCCGGCUGGGCAACAUUCGGAGGGGACCGUCCCCUCGGUAAUGGCGAAUGGGACCCA, 0.166.
As for GGACGGCAUGGUCCCAGCCUCCUCGCUGGCGCCGGCUGGGCAACAUUCCGAGGGGACCGUCCCCUCGGUAAUGGCGAAGGGGACCCA, the self-cleavage is 0.175.
As for GACCGGCAUGGUCCCAGCCUCCUCGCUGGCGCCGGCUUGGCAACAUUCCGAGGGGACCGUCCCCUCGGUAAUGGCGAAUGGGACCCA, the self-cleavage is 0.0373.
Turning to GGCCGGCAUGGUCCCAGCCUCCUCGCUGGCGCCGGCUGGGCAACAUUCCGAGGGGACCGUCCCCGCGGUAAUGGCGAAUGGAACCCA, the self-cleavage was 0.162.
The same measure for GGCCGCCAUGGUCCCAGCCUCCUCGCUGGCGCCGGCUGGGCAGCAUUCCGAGGGGACCGUCCCCUCGGUAAUGGCGAAUGGGACCCA: 0; for GGCCGCCAUGGUCCCAGCCUCCUCGCUGGCGCCGGCUGGGCAACAUUCCGAGGGGACCGUCCCCUCGAUAAUGGCGAAUGGGACCCA: 0.201; for GGCCGGCAUGGUCCCAGCCACCUCGCUGGCGCCGGCUGGGCGACAUUCCGAGGGGACCGUCCCCUCGGUAAUGGCGAAUGGGACCCA: 0.
In the case of GGCCGGCAUGGUCCCAGCCUGCUCGCUGGCGCCGGCUGGGCAACAUUCCGAGGGGACCGUCCACUCGGUAAUGGCGAAUGGGACCCA, the self-cleavage was determined as 0.106.
On to GGCCGGCAUGGUCCCAGCCUCCUCGCUGGCGCCGGCUGGGCAACAUUCCGAGCGGACCGUCCCCUCGGUAAUGGCGAAUGGGACGCA, for which the self-cleavage amounted to 1.01.
To GGCCGGCAUGGUACCAGCCUCCUCGCUGGCGCCGGCUGGGCAACAUUCUGAGGGGACCGUCCCCUCGGUAAUGGCGAAUGGGACCCA belongs 0.119.
To GGCCGGCAUGGUCCCAGCCACCUCGCUGGCGCCGGCUGGGCAACAUUCCGAGGGGACCGUCACCUCGGUAAUGGCGAAUGGGACCCA belongs 0.119.
As to GGCCGGCAUGGUCCCAGCCUCGUCGCUGGCACCGGCUGGGCAACAUUCCGAGGGGACCGUCCCCUCGGUAAUGGCGAAUGGGACCCA, the self-cleavage is 0.121.
To GGCCGGCAUGGUGCCAGCAUCCUCGCUGGCGCCGGCUGGGCAACAUUCCGAGGGGACCGUCCCCUCGGUAAUGGCGAAUGGGACCCA belongs 0.0437; to GGCCGCCAUGGUCCCAGCCUGCUCGCUGGCGCCGGCUGGGCAACAUUCCGAGGGGACCGUCCCCUCGGUAAUGGCGAAUGGGACCCA, 0.0875.
To GGCCGGUAUGGUCCCAGCCUCCUCGCUGGCGCCGGCUGGGCAACAUUCCGAGGGGUCCGUCCCCUCGGUAAUGGCGAAUGGGACCCA belongs 0.739; to GGCCGGCAUGGUCCCAGCCUCCUCGCUGGCGCCGGCUGGGCAACAUUCCGAUGGGACCGUCCCCUCUGUAAUGGCGAAUGGGACCCA, 0.205; to GGCCGGCAUGGUCCCAGCCUCCUCGCUGGCACCGGCUGGGCAACAUUCCGAGGGGACCGUCCCCUCGGUAAUUGCGAAUGGGACCCA, 0.229.
Consider GGCCGGCAUGGUCCCAGCCUCCUCGCUGGCGCCGGCUGGGCAACAUUCCGAGGGGACAGUCCCCUCGGUAAUGGCGAAUGGGACCCC, for which the self-cleavage amounted to 1.09.
To GGCCGGCAUGGUCCCAGCCUCCUCGCUGGCGCCGGCUGCCCAACAUUCCGAGGGGACCGUCCCCUCGGUAAUGGCGAAUGGGACCCA belongs 0.215.
As to GGCCGGCAUGGUCCCAGCCUCCUCGCUGGCGCCGGCUGGGCAACCUUCCGAGGGGACCGUCCCGUCGGUAAUGGCGAAUGGGACCCA, the self-cleavage amounted to 0.649.
To GGCCGGCAUGGUCCCACCCUCCUCGCUGGCGCCGGCUGGGCACCAUUCCGAGGGGACCGUCCCCUCGGUAAUGGCGAAUGGGACCCA belongs 0.119; to GGCCGGCAUGGUCCCAGCCUCCUCGCUUGCGCCGGCUGUGCAACAUUCCGAGGGGACCGUCCCCUCGGUAAUGGCGAAUGGGACCCA, 0.119; to GGCCGGCAUGGUCCCAGCCUCCUCGCUGGCGCCGGCUGGGCAACAUUCCGAGGGGACCGUCCCCUCGGUAAUGGCGAAUGCGGCCCA, 0.131.
The same measure for GGCCGGCAUGGUCCCAGCCUCCUCGCUGGCGCCAGCUGGGCAACAUUCCGAGGGGACCGUCCCCUCGGCAAUGGCGAAUGGGACCCA: 0.291.
The same measure for GGCCGGCAUGGUCCCAGCCUCCUCGCUGGCGCCGGCUGGGCAACAUUCCGAGGGGACCGUCCCCUCGGUAACGUCGAAUGGGACCCA: 0.584.
As to GGCCGGCAUGGUCCCAGCCUCCUCGCUGGCGCCGGCUGGGCAACAUUCCCAGGGGACCGUCCCCUCGGUAAUGGCGAAUGGGACCCG, the self-cleavage was determined as 0.974.
The same measure for GGCCGGCAUGGUCCCAGCCUCCUCGCUGGCGCCGGCUGGGCAACAUUCCGAGUGGACCGUCCCCUCCGUAAUGGCGAAUGGGACCCA: 0.534; for GGCCGGCAUGGUCCCAGCCUCCUGGCUGGCGCCGGCUGGGCAACAUUCCGAGCGGACCGUCCCCUCGGUAAUGGCGAAUGGGACCCA: 0.0817.
The same measure for GGCCGGCAUGGUCCCAGCCUCCUCGCUGUCGCCGGCUGGGCAACAUUCCGAGGGGACCGUCCCCUCGGUAAUCGCGAAUGGGACCCA: 0.185; for GGCCGGCAUGGUCCCAGCCUCCUCGCUGGCGCCGGCUGGGCAACAUUCCGAUGGGACCGUCCCCUCGGUAAUGGCGAAUGGGAUCCA: 0.71.
